According to patent US20230265151A1, “GIP/GLP1 CO-AGONIST COMPOUNDS” (priority 2020, published 2023):
*1 amine or outer side, *2 acyl side, *3 side chain or, on linkers, in order; H or OH if unused. Where no end group is shown, it is not given here. Side-chain parts run from the residue outwards. [ ]: non-standard residue; d: D form. The star is where a group is joined. Decanoyl(10-(4-HOOC-PhO)) = O=C(O)c1ccc(OCCCCCCCCCC(=O)*)cc1; αMePhe(2-F) = C[C@](N)(Cc1ccccc1F)C(=O)O; γGlu = O=C(O)[C@H](CCC(=O)[*:2])N[*:1]; αMeY = C[C@](N)(Cc1ccc(O)cc1)C(=O)O; αMeL = CC(C)C[C@](C)(N)C(=O)O; Orn = NCCC[C@H](N)C(=O)O; AEEA = NCCOCCOCC(=O)O; Aib = CC(C)(N)C(=O)O

T1: human GIP receptor (human, UniProt P48546 22-466)
T1 sequence (looked up): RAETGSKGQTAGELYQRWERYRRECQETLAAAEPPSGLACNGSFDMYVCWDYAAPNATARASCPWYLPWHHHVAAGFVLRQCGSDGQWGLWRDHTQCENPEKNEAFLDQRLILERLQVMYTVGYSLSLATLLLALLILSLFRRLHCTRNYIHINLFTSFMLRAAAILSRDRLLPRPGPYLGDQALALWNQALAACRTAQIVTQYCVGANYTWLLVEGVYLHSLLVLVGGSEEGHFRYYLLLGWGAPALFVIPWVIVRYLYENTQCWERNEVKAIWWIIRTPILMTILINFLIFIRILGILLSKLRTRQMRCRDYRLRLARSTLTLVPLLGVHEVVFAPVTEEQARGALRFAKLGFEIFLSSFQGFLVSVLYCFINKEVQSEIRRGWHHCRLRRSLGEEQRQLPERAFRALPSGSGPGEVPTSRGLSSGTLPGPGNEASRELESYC

T2: human GIP receptor (human) (UniProt P48546)
T2 sequence (looked up): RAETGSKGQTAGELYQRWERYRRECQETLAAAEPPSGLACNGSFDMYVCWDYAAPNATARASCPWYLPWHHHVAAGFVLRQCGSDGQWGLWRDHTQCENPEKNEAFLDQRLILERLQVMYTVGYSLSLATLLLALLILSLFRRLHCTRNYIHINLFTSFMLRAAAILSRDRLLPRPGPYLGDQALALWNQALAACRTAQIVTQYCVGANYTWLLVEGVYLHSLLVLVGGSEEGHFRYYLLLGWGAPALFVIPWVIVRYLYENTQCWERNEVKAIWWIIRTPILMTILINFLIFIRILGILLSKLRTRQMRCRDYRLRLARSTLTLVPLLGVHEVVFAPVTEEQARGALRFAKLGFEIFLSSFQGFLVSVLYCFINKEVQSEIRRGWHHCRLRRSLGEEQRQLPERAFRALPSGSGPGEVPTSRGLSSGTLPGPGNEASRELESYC

T3: human GIP receptor (human, UniProt P48546 22-466)
T3 sequence (looked up): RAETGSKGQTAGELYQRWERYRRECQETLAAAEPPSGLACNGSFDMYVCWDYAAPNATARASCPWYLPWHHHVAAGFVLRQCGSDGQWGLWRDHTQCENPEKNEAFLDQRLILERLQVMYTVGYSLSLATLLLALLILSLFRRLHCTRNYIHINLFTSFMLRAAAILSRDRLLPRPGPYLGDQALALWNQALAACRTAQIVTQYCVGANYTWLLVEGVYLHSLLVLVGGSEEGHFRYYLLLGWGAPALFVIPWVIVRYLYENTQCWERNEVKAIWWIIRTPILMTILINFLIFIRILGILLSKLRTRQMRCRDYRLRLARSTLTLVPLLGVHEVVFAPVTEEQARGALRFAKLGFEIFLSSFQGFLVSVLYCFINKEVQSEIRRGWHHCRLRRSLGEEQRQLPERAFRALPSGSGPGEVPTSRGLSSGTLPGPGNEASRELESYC


Legend:
Assay in all cases: cell-based or functional assay
[1] = molecular target: human GLP-1 receptor (human, UniProt P43220 24-463)
[2] = molecular target: T1, human GIP receptor
[3] = molecular target: human glucagon receptor (human, UniProt P47871 26-477)
[4] = molecular target: T2, human GIP receptor (human)
[5] = molecular target: hGLP-1R (Homo sapiens, UniProt P43220)
[6] = molecular target: human glucagon receptor (human) (UniProt P47871)
[7] = molecular target: human GLP-1 receptor (human, UniProt P43220 24-463); remark: listed apart in the source
[8] = molecular target: human glucagon receptor (human, UniProt P47871 26-477); remark: listed apart in the source
Target sequence in this assay (P47871 26-477): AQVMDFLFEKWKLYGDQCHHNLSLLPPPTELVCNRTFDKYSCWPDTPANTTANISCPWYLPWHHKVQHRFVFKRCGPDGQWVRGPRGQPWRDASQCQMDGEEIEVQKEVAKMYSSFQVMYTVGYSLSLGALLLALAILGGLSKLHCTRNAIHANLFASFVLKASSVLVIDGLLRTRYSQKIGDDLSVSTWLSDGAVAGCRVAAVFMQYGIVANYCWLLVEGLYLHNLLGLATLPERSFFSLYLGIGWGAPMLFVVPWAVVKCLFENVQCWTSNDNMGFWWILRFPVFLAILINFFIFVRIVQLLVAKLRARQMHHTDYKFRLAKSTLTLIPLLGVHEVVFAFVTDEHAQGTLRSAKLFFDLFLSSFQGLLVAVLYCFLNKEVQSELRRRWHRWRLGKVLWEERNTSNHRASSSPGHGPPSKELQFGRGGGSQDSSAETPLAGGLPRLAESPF

[9] = molecular target: T3, human GIP receptor; remark: listed apart in the source

Row | Binder | cAMP EC50 (1.0% HSA) [7] [nM] | cAMP Emax (1.0% HSA) [7] [%] | cAMP EC50 (1.0% HSA) [8] [µM] | cAMP EC50 (1.0% HSA) [9] [nM] | further results
1 | YXEGTXTSDXXIXLDXKAQXXFIXXLIKGGPSSGAPPPS (Y-Aib-EGT-αMeF(2F)-TSD-4Pal-Aib-I-αMeL-LD-Orn-K((2-[2-(2-Amino-ethoxy)-ethoxy]-acetyl)2-(α-Glu)-(10-(4-carboxyphenoxy)decanoyl))AQ-Aib-Om-FI-(D-Glu)-αMeY-LIK((2-[2-(2-Amino-ethoxy)-ethoxy]-acetyl)2-(γ-Glu)-(10-(4-carboxyphenoxy)decanoyl))GGPSSGAPPPS-NH2) [Example 351] |  |  |  |  | cAMP EC50 (1.0% HSA) [1]: 5.8 nM; cAMP Emax (1.0% HSA) [1]: 91%; cAMP EC50 (1.0% HSA) [2]: 0.722 nM; cAMP Emax (1.0% HSA) [2]: 67.9%; cAMP EC50 (1.0% HSA) [3]: > 9.95 µM; cAMP EC50 [4]: 0.0185 nM; cAMP Emax [4]: 102%; cAMP EC50 [5]: 0.397 nM; cAMP Emax [5]: 100%; cAMP EC50 [6]: > 9.95 µM
2 | YXEGTXTSDYXIXLDXKAQXXFIXXLIKGGPSSGAPPPS (Y-Aib-EGT-αMeF(2F)-TSDY-Aib-I-αMeL-LD-Orn-K((2-[2-(2-Amino-ethoxy)-ethoxy]-acetyl)2-(γ-Glu)-(10-(4-carboxyphenoxy)decanoyl))AQ-Aib-Om-FI-(D-Glu)-αMeY-LIK((2-[2-(2-Amino-ethoxy)-ethoxy]-acetyl)2-(γ-Glu)-(10-(4-carboxyphenoxy)decanoyl))GGPSSGAPPPS-NH2) [Example 352] |  |  |  |  | cAMP EC50 (1.0% HSA) [1]: 5.46 nM; cAMP Emax (1.0% HSA) [1]: 93.5%; cAMP EC50 (1.0% HSA) [2]: 0.277 nM; cAMP Emax (1.0% HSA) [2]: 71.3%; cAMP EC50 (1.0% HSA) [3]: > 9.95 µM; cAMP EC50 [4]: 0.0106 nM; cAMP Emax [4]: 98.3%; cAMP EC50 [5]: 0.262 nM; cAMP Emax [5]: 99.5%; cAMP EC50 [6]: > 9.95 µM
3 | YXEGTXTSDXXIXLDXIAQXXFIKXLIKGGPSSGAPPPS (Y-Aib-EGT-αMeF(2F)-TSD-4Pal-Aib-I-αMeL-LD-Orn-IAQ-Aib-Orn-FIK((2-[2-(2-Amino-ethoxy)-ethoxy]-acetyl)2-(γ-Glu)-(10-(4-carboxyphenoxy)decanoyl))-αMeY-LIK((2-[2-(2-Amino-ethoxy)-ethoxy]-acetyl)2-(γ-Glu)-(10-(4-carboxyphenoxy)decanoyl))GGPSSGAPPPS-NH2) [Example 354] | 7.25 | 95.9 | > 9.95 | 0.857 | cAMP Emax (1.0% HSA) [9]: 67.5%
4 | YXEGTXTSDYXIXLDXIAQXXFIKXLIKGGPSSGAPPPS (Y-Aib-EGT-αMeF(2F)-TSDY-Aib-I-αMeL-LD-Orn-IAQ-Aib-Orn-FIK((2-[2-(2-Amino-ethoxy)-ethoxy]-acetyl)2-(γ-Glu)-(10-(4-carboxyphenoxy)decanoyl))-αMeY-LIK((2-[2-(2-Amino-ethoxy)-ethoxy]-acetyl)2-(γ-Glu)-(10-(4-carboxyphenoxy)decanoyl))GGPSSGAPPPS-NH2) [Example 355] | 11.3 | 109 | > 9.95 | 1.81 | 
5 | Y[Aib]EGT[αMePhe(2-F)]TSDV[Aib]I[αMeL]LD[Orn]IAQ[Aib][Orn]FIK([AEEA-AEEA-γGlu-Decanoyl(10-(4-HOOC-PhO))])[αMeY]LIK([AEEA-AEEA-γGlu-Decanoyl(10-(4-HOOC-PhO))])GGPSSGAPPPS-NH2 [Example 356] | 23.4 |  | > 9.95 | 2.47 | cAMP Emax (1.0% HSA) [9]: 82.7%
6 | YXEGTXTSDYXIXLDXIAQXEFIKXLIKGGPSSGAPPPS (Y-Aib-EGT-αMeF(2F)-TSDY-Aib-I-αMeL-LD-Orn-IAQ-Aib-EFIK((2-[2-(2-Amino-ethoxy)-ethoxy]-acetyl)2-(γ-Glu)-(2-[2-(2-Amino-ethoxy)-ethoxy]-acetyl)-CO-(CH2)12-CO2H)-αMeY-LIK((2-[2-(2-Amino-ethoxy)-ethoxy]-acetyl)2-(γ-Glu)-(2-[2-(2-Amino-ethoxy)-ethoxy]-acetyl)-CO-(CH2)12-CO2H)GGPSSGAPPPS-NH2) [Example 363] | 14.3 |  | > 9.95 | 0.976 | 
7 | YXEGTXTSDYXIXLDXIAQXEFIKXLIKGGPSSGAPPPS (Y-Aib-EGT-αMeF(2F)-TSDY-Aib-I-αMeL-LD-Orn-IAQ-Aib-EFIK((2-[2-(2-Amino-ethoxy)-ethoxy]-acetyl)-(γ-Glu)-(2-[2-(2-Amino-ethoxy)-ethoxy]-acetyl)2-CO-(CH2)12-CO2H)-αMeY-LIK((2-[2-(2-Amino-ethoxy)-ethoxy]-acetyl)-(γ-Glu)-(2-[2-(2-Amino-ethoxy)-ethoxy]-acetyl)2-CO-(CH2)12-CO2H)GGPSSGAPPPS-NH2) [Example 364] | 13 |  | > 9.95 | 0.895 | 
8 | YXEGTXTSDYXIXLDXIAQXEFIKXLIKGGPSSGAPPPS (Y-Aib-EGT-αMeF(2F)-TSDY-Aib-I-αMeL-LD-Orn-IAQ-Aib-EFIK((2-[2-(2-Amino-ethoxy)-ethoxy]-acetyl)-(γ-Glu)-(2-[2-(2-Amino-ethoxy)-ethoxy]-acetyl)-CO-(CH2)12-CO2H)-αMeY-LIK((2-[2-(2-Amino-ethoxy)-ethoxy]-acetyl)-(γ-Glu)-(2-[2-(2-Amino-ethoxy)-ethoxy]-acetyl)-CO-(CH2)12-CO2H)GGPSSGAPPPS-NH2) [Example 365] | 22.3 | 91 | > 9.95 | 1.93 | 
9 | YXEGTXTSDYXIXLDXIAQXEFIKXLIKGGPSSGAPPPS (Y-Aib-EGT-αMeF(2F)-TSDY-Aib-I-αMeL-LD-Orn-IAQ-Aib-EFIK((2-[2-(2-Amino-ethoxy)-ethoxy]-acetyl)-(γ-Glu)-(10-(4-carboxyphenoxy)decanoyl))-αMeY-LIK((2-[2-(2-Amino-ethoxy)-ethoxy]-acetyl)-(γ-Glu)-(10-(4-carboxyphenoxy)decanoyl))GGPSSGAPPPS-NH2) [Example 375] | 56.1 |  | > 9.95 | 4.68 | 
